The values below come from publication PMC5435087.

Assay in all cases: BLI
Data set [1] has as its system Boreoeutherian TARBP2 dsrm1 (reconstructed ancestor (Boreoeutheria)). As to conditions: Label-free kinetics assay (ForteBio, biotinylated RNA on streptavidin probes, biocytin block), 1x Kinetics Buffer, pH 7; temperature and salt not stated …; scale: fold lower affinity than ancestral TARBP2 dsrm1.
The test system of data set [2] is Eutherian PRKRA dsrm2 (reconstructed ancestor (Eutheria)). As to conditions: Label-free kinetics assay (ForteBio, biotinylated RNA on streptavidin probes, biocytin block), 1x Kinetics Buffer, pH 7; temperature and salt not stated …; scale: fold higher affinity than ancestral mammal PRKRA dsrm2.
In data set [3] the test system is Rosid dsrm1 (reconstructed ancestor (Rosids)). To be noted: Label-free kinetics assay (ForteBio, biotinylated RNA on streptavidin probes, biocytin block), 1x Kinetics Buffer, pH 7; temperature and salt not stated ….
Data set [4] relates to ancAnimal dsrm (reconstructed ancestor (animal)). To be noted: Label-free kinetics assay (ForteBio, biotinylated RNA on streptavidin probes, biocytin block), 1x Kinetics Buffer, pH 7; temperature and salt not stated ….
The test system of data set [5] is ancAnimal dsrm + dsrm1 substitutions (reconstructed ancestor (animal)). To be noted: Label-free kinetics assay (ForteBio, biotinylated RNA on streptavidin probes, biocytin block), 1x Kinetics Buffer, pH 7; temperature and salt not stated ….
For data set [6], the system named is ancAnimal dsrm + dsrm3 substitutions (reconstructed ancestor (animal)). To be noted: Label-free kinetics assay (ForteBio, biotinylated RNA on streptavidin probes, biocytin block), 1x Kinetics Buffer, pH 7; temperature and salt not stated ….
Data set [7] deals with ancAnimal dsrm1 (reconstructed ancestor (animal)). To be noted: steady state; initial-rate Km 4.2 uM; Label-free kinetics assay (ForteBio, biotinylated RNA on streptavidin probes, biocytin block), 1x Kinetics Buffer, pH 7; temperature and salt not stated ….
The test system of data set [8] is ancAnimal dsrm2 (reconstructed ancestor (animal)). To be noted: steady state; initial-rate Km 22.9 uM; Label-free kinetics assay (ForteBio, biotinylated RNA on streptavidin probes, biocytin block), 1x Kinetics Buffer, pH 7; temperature and salt not stated ….
The subject of data set [9] is ancAnimal dsrm3 (reconstructed ancestor (animal)). To be noted: steady state; initial-rate Km 4.1 uM; Label-free kinetics assay (ForteBio, biotinylated RNA on streptavidin probes, biocytin block), 1x Kinetics Buffer, pH 7; temperature and salt not stated ….
The subject of data set [10] is ancPlant DRB4 dsrm1 (reconstructed ancestor (plant)). As to conditions: steady state; initial-rate Km 38.3 uM; Label-free kinetics assay (ForteBio, biotinylated RNA on streptavidin probes, biocytin block), 1x Kinetics Buffer, pH 7; temperature and salt not stated ….
In data set [11] the test system is ancPlant DRB6 dsrm2 (reconstructed ancestor (plant)). To be noted: steady state; initial-rate Km 24.8 uM; Label-free kinetics assay (ForteBio, biotinylated RNA on streptavidin probes, biocytin block), 1x Kinetics Buffer, pH 7; temperature and salt not stated ….
For data set [12], the system named is ancPlant dsrm (reconstructed ancestor (plant)). As to conditions: Label-free kinetics assay (ForteBio, biotinylated RNA on streptavidin probes, biocytin block), 1x Kinetics Buffer, pH 7; temperature and salt not stated ….
Data set [13] deals with ancPlant dsrm + dsrm2 alpha2 (reconstructed ancestor (plant)). As to conditions: Label-free kinetics assay (ForteBio, biotinylated RNA on streptavidin probes, biocytin block), 1x Kinetics Buffer, pH 7; temperature and salt not stated ….
Data set [14] concerns ancPlant dsrm2 (reconstructed ancestor (plant)). To be noted: steady state; initial-rate Km 4.2 uM; Label-free kinetics assay (ForteBio, biotinylated RNA on streptavidin probes, biocytin block), 1x Kinetics Buffer, pH 7; temperature and salt not stated ….
In data set [15] the test system is ancPlant dsrm2 H31L (reconstructed ancestor (plant)). As to conditions: Label-free kinetics assay (ForteBio, biotinylated RNA on streptavidin probes, biocytin block), 1x Kinetics Buffer, pH 7; temperature and salt not stated …; scale: fold change in Kd.
For data set [16], the system named is ancestral TARBP2 dsrm1 + QV insertion (reconstructed ancestor (mammal)). To be noted: Label-free kinetics assay (ForteBio, biotinylated RNA on streptavidin probes, biocytin block), 1x Kinetics Buffer, pH 7; temperature and salt not stated …; scale: fold lower affinity than ancestral TARBP2 dsrm1.
Data set [17] has as its system ancestral dsrm1 before Rosid shift (reconstructed ancestor (plant)). As to conditions: Label-free kinetics assay (ForteBio, biotinylated RNA on streptavidin probes, biocytin block), 1x Kinetics Buffer, pH 7; temperature and salt not stated ….
The test system of data set [18] is ancestral plant DRB4 dsrm1 (before Fabaceae shift) (reconstructed ancestor (plant)). As to conditions: Label-free kinetics assay (ForteBio, biotinylated RNA on streptavidin probes, biocytin block), 1x Kinetics Buffer, pH 7; temperature and salt not stated ….
Data set [19] relates to ancestral plant DRB4 dsrm1 + H31 (reconstructed ancestor (plant)). To be noted: Label-free kinetics assay (ForteBio, biotinylated RNA on streptavidin probes, biocytin block), 1x Kinetics Buffer, pH 7; temperature and salt not stated …; scale: fold higher affinity than ancestral plant DRB4 dsrm1.

As for short dsRNA, the binding signal worked out at 10 in [1]; 3.79 in [2]; 6.6 in data set [15]; 10 in data set [16]; 8.1 in [19]. For the same substance, the Kd in data set [3] was determined as 4.89 pKd; in [4] it was 17.2 µM; in data set [7] it was 4 µM; in data set [8], 24.6 µM; in data set [9] it was 3.2 µM; in data set [10], 38.9 µM. The Kd was found to be 24.4 µM in data set [11]; 59.2 µM in data set [12]; 5.2 µM in data set [14]; 4.41 pKd in data set [17]; 4.31 pKd in data set [18]. For the same substance, the binding signal (fold higher affinity than ancAnimal dsrm) amounted to 3 in data set [5] and 4.3 in data set [6]. The binding signal (fold higher affinity than ancPlant dsrm) in [13] is 9.1.
